Drawing on article PMC6166725, this text covers Kd and dH for one substance.

This assay deals with maltose-binding protein fragment MBP198–265 [MBP: P0AEX9]. Nature of the assay: ITC; iTC200, 22 °C; 350 μM MBP198–265 in the cell, 3.5 mM TF^PPD-SBD in the syringe; 20 mM potassium phosphate pH 7.0, 100 mM KCl, 0.05% NaN3. (In general: Isothermal titration calorimetry measures the heat released or taken up as one component is titrated into another.)

By Kd is commonly meant a measure of binding affinity in units of concentration. High values mean weaker binding, low ones tighter binding.

Regarding “trigger factor tandem domain TF^PPD-SBD (from UniProt P0A850 113-246) (domain or fragment)”, the Kd came to 47 µM and the dH is -5.9 kcal/mol.
